Assay results published in paper PMC6472337, “L amino acid transporter structure and molecular bases for the asymmetry of substrate interaction” (Nature Communications, 2019).

Legend:
BasC wild-type = assay: [3H]L-alanine transport (influx, efflux, exchange) in BasC proteoliposomes; assay type: biochemical, Carnobacterium sp AT7; settings: for 10 μM [3H]L-alanine exchange into BasC PLs containing 4 mM of the indicated compound: 4 mM compound inside PLs, n=1-3 and mean
Description: BasC-GFP protein was reconstituted in E. coli polar lipids (Sigma-Aldrich, Madrid, Spain), as previously described. Lipids were dried under N2 and suspended in reconstitution buffer (20 mM Tris-Base, 150 mM NaCl, pH 7.4). The suspension was sonicated to clarity and purified BasC protein was added to reach the desired protein to lipid ratio of 1:100 (w:w). To destabilize the liposomes, 1.25% ß-D-octylglucoside was added and the mixture was incubated on ice with occasional agitation for 5 min. DDM and ß-D-octylglucoside were removed by dialysis for 40 h at 4 °C against 100 volumes of dialysis buffer. Proteoliposome (PL) suspensions were frozen in liquid N2 and stored at −80 °C until use.
For uptake experiments, the desired intraliposomal amino acid concentration was added to the PL suspension, which was then subjected to three freeze/thaw cycles. The extraliposomal amino acid content was then removed by ultracentrifugation (100,000 × g for 1 h at 4 °C) and PLs were resuspended to one-third of the initial volume with reconstitution buffer. Amino acid uptake assays were initiated after mixing 10 μl of cold PLs with 180 μl of transport buffer (20 mM Tris-Base, 150 mM NaCl, pH 7.4 plus 0.5–1 µCi/180 µl of radiolabeled L-amino acid (Perkin Elmer, Waltham, MA)) supplemented with the unlabeled amino acid to the desired concentration. This mixture was then incubated at room temperature for the indicated periods. […] Filters were then washed twice with 2 ml of stop buffer and dried, and the trapped radioactivity was counted. Transport measured in PLs containing no amino acid was subtracted from each data point to calculate the net exchange. […] BasC protein in PLs was determined by Coomassie blue staining in SDS-PAGE gels compared with known amounts of BasC in DDM micelles, determined by BCA assay (Pierce, Rockford, IL) and loaded in the same gel.

AdiC = tested on: AdiC; parameters: method as in PMID 22304019; settings: cited from earlier work
[1] = substrate: C[C@H](N)C(=O)O; assay: cells, lysate or membranes; settings: other: L-alanine uptake, pH 7.4, 37.0 °C
[2] = target: T1, bacterial alanine-serine-cysteine exchanger (BasC), wild-type, purified for crystallography (Carnobacterium sp. AT7); assay: crystal structure; BasC incubated with Nb74 at 1:1.2, complex purified by SEC in 0.17% DM; sitting-drop vapor diffusion at 4 °C, 27–29% PEG 400, 0.1 M ammonium acetate pH 8; apo (2.9 Å) and with 100 mM 2-AIB (3.4 Å); settings: both partners purified
T1 construct: BasC, bacterial alanine-serine-cysteine exchanger, a prokaryotic L-type amino acid transporter (LAT); In the transport assays (functional rows) BasC stood as uncleaved BasC-GFP reconstituted in E. coli polar lipid proteoliposomes; also called WT; source: E. coli BL21 Star (DE3), purified in DM (Ni2+-NTA, on-column HRV-3C cleavage); not shown: GFP, C-terminal, cleaved
T1 chain: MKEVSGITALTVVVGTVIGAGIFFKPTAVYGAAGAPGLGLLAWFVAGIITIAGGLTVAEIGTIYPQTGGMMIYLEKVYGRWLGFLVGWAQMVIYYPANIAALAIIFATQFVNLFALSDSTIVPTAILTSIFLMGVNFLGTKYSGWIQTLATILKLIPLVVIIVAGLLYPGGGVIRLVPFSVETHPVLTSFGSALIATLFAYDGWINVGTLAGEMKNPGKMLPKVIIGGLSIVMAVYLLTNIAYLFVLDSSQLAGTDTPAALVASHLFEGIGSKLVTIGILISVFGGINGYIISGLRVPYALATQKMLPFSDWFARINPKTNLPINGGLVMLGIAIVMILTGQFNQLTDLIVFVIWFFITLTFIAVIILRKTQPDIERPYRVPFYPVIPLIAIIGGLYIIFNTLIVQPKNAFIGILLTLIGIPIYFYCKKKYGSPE

BasC = assay: Surface plasmon resonance of Nb74-BasC interaction; assay type: binding, Carnobacterium sp AT7; settings: read-out: KD (affinity of Nb74 for BasC)
Description: Surface plasmon resonance (Biacore T-100, GE Healthcare, Chicago, IL) was used to screen 29 Nbs (one from each family) for binding with BasC, purified as for crystallography. […] BasC was assayed at 500–2.5 nM in running buffer. […] The BasC-Nb74 complex rendered the best results initially and consequently crystals were optimized.

[3] = target: T1, bacterial alanine-serine-cysteine …; assay: SPR; Biacore T-100; nanobody captured (around 200 RU) on a CM5 chip coated with anti-His antibody; BasC flowed at 500–2.5 nM; running buffer phosphate buffered saline, 0.17% DM; settings: both partners purified
[4] = 5 µM Nb74 in medium, exchange with 4 mM L-alanine, NT = 100, n=1-6 and mean

With `CC(C)(N)C(=O)O` [2-AIB, 2-aminoisobutyric acid] as the molecule, how does the Km (BasC wild-type; 2-AIB as intraliposomal substrate, read-out: intracellular Km) read?
The Km was 34.5 ± 10 mM.

What about the “intracellular Km relative to L-alanine Km” value (BasC wild-type; higher than L-alanine Km) of the same molecule?
Its value is ~ 10 fold.

Which “10 μM [3H]L-alanine exchange into BasC PLs containing 4 mM of the indicated compound” value (BasC wild-type) does the source give for `CC(=O)O` [Acetate] here?
Its value is “not significant”.

With `CCN` [Ethylamine, ethylamine] as the molecule, how does the “10 μM [3H]L-alanine exchange into BasC PLs containing 4 mM of the indicated compound” value (BasC wild-type; listed as ethylamine) read?
Its value is “not significant”.

Which “10 μM [3H]L-alanine exchange into BasC PLs containing 4 mM of the indicated compound” value (BasC wild-type) does the source give for `NCCCC(=O)O` [GABA, γ-aminobutyrate] here?
The value was “not a substrate”.

Which “intracellular apparent Km value compared to the extracellular one” value (AdiC) does the source give for `NCCCCN=C(N)N` [agmatine] here?
The value was “two-fold higher”.

With `N=C(N)NCCC[C@H](N)C(=O)O` [arginine] as the molecule, how does the “intracellular apparent Km value compared to the extracellular one” value (AdiC) read?
The value was “two-fold higher”.

B1: human Asc-1 (hAsc-1) wild-type (Homo sapiens) (protein)
chain: MAGHTQQPSGRGNPRPAPSPSPVPGTVPGASERVALKKEIGLLSACTIIIGNIIGSGIFISPKGVLEHSGSVGLALFVWVLGGGVTALGSLCYAELGVAIPKSGGDYAYVTEIFGGLAGFLLLWSAVLIMYPTSLAVISMTFSNYVLQPVFPNCIPPTTASRVLSMACLMLLTWVNSSSVRWATRIQDMFTGGKLLALSLIIGVGLLQIFQGHFEELRPSNAFAFWMTPSVGHLALAFLQGSFAFSGWNFLNYVTEEMVDARKNLPRAIFISIPLVTFVYTFTNIAYFTAMSPQELLSSNAVAVTFGEKLLGYFSWVMPVSVALSTFGGINGYLFTYSRLCFSGAREGHLPSLLAMIHVRHCTPIPALLVCCGATAVIMLVGDTYTLINYVSFINYLCYGVTILGLLLLRWRRPALHRPIKVNLLIPVAYLVFWAFLLVFSFISEPMVCGVGVIIILTGVPIFFLGVFWRSKPKCVHRLTESMTHWGQELCFVVYPQDAPEEEENGPCPPSLLPATDKPSKPQ
Which Km ([1]; wild-type hAsc-1, HeLa cells) does the source give for B1 here?
Its Km is 0.0675 ± 0.0042 mM.

What about the Vmax ([1]; wild-type hAsc-1, HeLa cells) of the same molecule?
Its Vmax is 1703 ± 425 pmols µg protein^−1 min^−1.

B2: hAsc-1 K194A mutant (Homo sapiens; K194A) (protein)
chain: MAGHTQQPSGRGNPRPAPSPSPVPGTVPGASERVALKKEIGLLSACTIIIGNIIGSGIFISPKGVLEHSGSVGLALFVWVLGGGVTALGSLCYAELGVAIPKSGGDYAYVTEIFGGLAGFLLLWSAVLIMYPTSLAVISMTFSNYVLQPVFPNCIPPTTASRVLSMACLMLLTWVNSSSVRWATRIQDMFTGGALLALSLIIGVGLLQIFQGHFEELRPSNAFAFWMTPSVGHLALAFLQGSFAFSGWNFLNYVTEEMVDARKNLPRAIFISIPLVTFVYTFTNIAYFTAMSPQELLSSNAVAVTFGEKLLGYFSWVMPVSVALSTFGGINGYLFTYSRLCFSGAREGHLPSLLAMIHVRHCTPIPALLVCCGATAVIMLVGDTYTLINYVSFINYLCYGVTILGLLLLRWRRPALHRPIKVNLLIPVAYLVFWAFLLVFSFISEPMVCGVGVIIILTGVPIFFLGVFWRSKPKCVHRLTESMTHWGQELCFVVYPQDAPEEEENGPCPPSLLPATDKPSKPQ
Which Km ([1]; K194A hAsc-1, HeLa cells) does the source give for B2 here?
Its Km is 0.825 ± 0.053 mM.

What about the Vmax ([1]; K194A hAsc-1, HeLa cells) of the same molecule?
The Vmax was 152 ± 16 pmols µg protein^−1 min^−1.

B3: anti-BasC nanobody 74 (Nb74) (VHH)
VHH: QVQLVESGGGVVQAGGSLRLSCAASGRTFSSRAMGWFRQAPGEGREFVATISWSGSYTEYADSVKGRVTISRDNAKNTVYLQMNSLKPGDTAVYHCAAKNGGAASNYPNDYVYWGQGTQVTVSS
notes: nanobody from a llama immunised with BasC proteoliposomes, selected by phage display (vector pMESy4); Captured by its His tag on an anti-His antibody in the SPR experiment
Which “stoichiometry N” value [2] does the source give for B3 here?
The value was 1.

What about the Kd (BasC) of the same molecule?
The Kd was 3.87 nM.

And the “Efflux of 10 µM [3H]L-alanine, normalized to non-treated PLs” value (BasC wild-type; [4])?
Its value is 9.14.

What about the “Influx of 10 µM [3H]L-alanine, normalized to non-treated PLs” value (BasC wild-type; [4]) of the same molecule?
Its value is 105.77.

What about the IC50 (BasC wild-type; read-out: IC50 of 10 µM [3H]L-alanine efflux, efflux in exchange with 4 mM L-alanine, Nb74 in PL medium) of the same molecule?
The IC50 was roughly 300 nM.

What about the Kd [3] of the same molecule?
The Kd was 3.9 ± 1.4 nM.
